In the nanobody polyreactivity screen of Harvey et al. (2022):

Test: yeast display, Sf9 membrane polyspecificity reagent, FACS + sequencing; frameworks hold sequencing errors
Procedure, shortened: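 A nanobody's polyreactivity label depends on the gate it was sorted from. Yeast display cells were stained with 10% biotinylated, detergent-solubilized Sf9 membrane reagent for 1 hour at 4 °C, enriched on streptavidin microbeads and sorted by FACS. The low and high (top ~1%) gates were set on anti-HA fluorescence for expression and streptavidin fluorescence for reagent binding.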

Sequence	polyreactivity (PSR sort gate)
QVQLVESGGGLVQAGGSLRLSCAASGSTFGRYVMGWYRQAPGKERELVAAISYSGGRTYYADSVKGRFTISRDNAKNTVYLQMNSLKPEDTAVYYCNKGGIREYDYWGQGTQVTVSS	high polyreactivity
QVQLVESGGGLVQAGGSLRLSCAASGSTFGSNAIGWYRQAPGKERELVAAISKRGGSTYYADSVKGRFTISRDNAKNTVYLQMNSLKPEDTAVYYCAVAYTPSRRYSAYSADRMDYWGQGTQVTVSS	high polyreactivity
QVQLVESGGGLVQAGGSLRLSCAASGSTFGSYAMGWYRQAPGKERELVAAITGSGGRTYYADSVKGRFTISRDNAKNRVYLQLNSLKPEDTAVYYCAKVPDYRFEYWGQGTQVTVSS	high polyreactivity
QVQLVESGGGLVQAGGSLRLSCAASGSTFGSYAMGWYRQAPGKERELVASISSRGGSTYYADSVKGRFTISRDNAKNTVYLQMNSLKPEDTAVYYCPATRYSAYSRGKYNFWGQGTQVTVSS	high polyreactivity
QVQLVESGGGLVQAGGSLRLSCAASGSTFGTNVMGWYRQAPGKERELVAAISRRGSSTYYADSVKGRFTISRDNAKNTVYLQMNSLKPEDTAVYYCAARVYPSAAMDSWGQGTQVTVSS	high polyreactivity
QVQLVESGGGLVQAGGSLRLSCAASGSTFGTYAMGWYRQAPGKERELVAAITSGDNTYYADSVKGRFTISRDNAKNTVYLPMNSLKPEDTAVYYCAKDYNRYYWPWVIRGYDYWGQGTHVTVSS	low polyreactivity
QVQLVESGGGLVQAGGSLRLSCAASGSTFGTYAMGWYRQEPGKERELVAAINRDGGRTYYADSVKGRFTISRDNAKNTVYLQMNSLKPEDTAVYYCAAEGLDEGDYWGQGTQVTVSS	low polyreactivity
QVQLVESGGGLVQAGGSLRLSCAASGSTFGVNALGWYRQAPGKERELVAVITRSGGSTYYADSVKGRFTISRDNAKNTVYLQMNSLKPEDTAVYYCAKSGVVDWGQGTQVTVSS	low polyreactivity
QVQLVESGGGLVQAGGSLRLSCAASGSTFGVNAMGWYRQAPGKERELVADMSFRTDSTYYADSVKGRFTISRDNAKNTVYLQMNRLNPEDTAVYYCAAEVPYYYPGFYSYYDDSDYWGQGTQVTVSS	low polyreactivity
QVQLVESGGGLVQAGGSLRLSCAASGSTFGVNAMGWYRQAPGKERELVAIITSTTYADSVKGRFTISRDNAKNTVYLQMNSLKPEDTAVYYCAKDQERVTKGRFYLLEYYWGQGTQVTVSS	low polyreactivity
QVQLVESGGGLVQAGGSLRLSCAASGSTFGVNAMGWYRQAPGKERELVAVITRSGGSTYYADSVKGRFTISRDNAKNTVYLQMNSLKPEDTAVYYCATSGVVDWGQGTQVTVSS	low polyreactivity
QVQLVESGGGLVQAGGSLRLSCAASGSTFGVYAMGWYREAPGKERELVAAINKSGTRTYYADSVKGRFTISRDNAKNTVYLQMNSLKPEDTAVYYCAADQGTYGYGGFYYWGQGTQVTVSS	high polyreactivity
QVQLVESGGGLVQAGGSLRLSCAASGSTFGVYAMGWYRQAPGKEREFVAAITSSSGSTYYADSVKGRFTISRDNAKNTVYLQMNSLKPEDTAVYYCNVQGWTRSDAGRYDNMDYWGQGTQVTVSS	low polyreactivity
QVQLVESGGGLVQAGGSLRLSCAASGSTFGVYDMGWYRQAPGKERELVAAITGNGGRTYYADSVKGRFTISRDNAKNTVYLQMNSLKPEDTAVYYCNARVKRYVYWPYDYWGQGTQVTVSS	high polyreactivity
QVQLVESGGGLVQAGGSLRLSCAASGSTFGWYAMGGYRQAPGKERELVAAISSGGSTYYADSVKGRFTISRDHAKYTVYLQMNSLKPEDTAVYYCAADIGYYYRYDYWGQGTQVTVSS	low polyreactivity
QVQLVESGGGLVQAGGSLRLSCAASGSTFGWYAMGLYRQAPGKERELVATISSGGSTYYADSVKGRFTISRDNAKNTVYLQMNSLKPEDTAVYYCAADYWTYEYPGYDYWGQGTQVTVSS	low polyreactivity
QVQLVESGGGLVQAGGSLRLSCAASGSTFGWYAMGWYRQAPGKERELVAAISTSGNTYYADSVKGRFTISRDNAKNTVYLHMNRLKPEDTAVSYCAKYVNPDHDYWGQGTQVTVSS	low polyreactivity
QVQLVESGGGLVQAGGSLRLSCAASGSTFGWYTMGWYRQAPGKERELVAAITSRGTRTSYADSVKGRFTISRDNAKNTVYLQMNSLKPEDTAVYYCAARVFRGLGEYYWGQGTQVTVSS	high polyreactivity
QVQLVESGGGLVQAGGSLRLSCAASGSTFGYNAMGWYRQAPGKEREFVASIDARGTSTYYADSVKGRFTISRDNAKNTVYLQMNSLKPEYTAVYYCAADAEFTWSTVRLGWIYIWYEYWGQGTQVTVSS	low polyreactivity
QVQLVESGGGLVQAGGSLRLSCAASGSTFGYNAMGWYRQAPGKEREFVATIRYSGDRTYYADSVKGRFTISRDNAKNTVYLQMNSLKPEDTAVYYCAADLYYNSYGRYGRYYYWGQGTQVTVSS	high polyreactivity
QVQLVESGGGLVQAGGSLRLSCAASGSTFGYNAMGWYRQAPGKERELVAAISSDGSTNYADSVKGRFTISRDNSKNTVYLQMNSLKPEDTAVYYCAADDNGAWVRMDYWGHGTQVTVSS	low polyreactivity
QVQLVESGGGLVQAGGSLRLSCAASGSTFGYNAMGWYRQAPGKERELVAAISWRGGNTYYADSVKGRFTISRDNAKNTVYLQMNSLKPEDTAVYYCNKVWPRYYVHGGSRVPEYDYWGQGTQVTVSS	high polyreactivity

Sequence	polyreactivity (PSR sort gate)
QVQLVESGGGLVQAGGSLRLSCAASGSTFGYNAMGWYRQAPGKERELVAAISYIGGSTYYADSVKGRFTISRDNAKNTVYLQMNSLKPEDTAVYYCNAAVRYYDRTVSPVKFDYWGQGTQVTVSS	high polyreactivity
QVQLVESGGGLVQAGGSLRLSCAASGSTFGYNDMGWYRQAPGKERELVAAISVSDSSTYYADSVKGRFTISRDNAKNTVYLQMNSLKPEDTAVYYCAAYIYYNYSRQYWYDYWGQGTQVTVSS	low polyreactivity
QVQLVESGGGLVQAGGSLRLSCAASGSTFGYNDMGWYRQAPGKERELVAAISVSDSSTYYADSVKGRFTISRDYAKNTVYLQMNCLKPEDTAVYYCAAEYYVGFTYRYEYWGQGTQVTVSS	low polyreactivity
QVQLVESGGGLVQAGGSLRLSCAASGSTFGYNTMGWYRQAPGNERELVAAITGTGRTNYADSVKGRFTISRDNAKNTVYLQMNRLNPEDTAVYYCNARQAGTRYKYGYYGRYYWGQGTQVTVSS	high polyreactivity
QVQLVESGGGLVQAGGSLRLSCAASGSTFGYYAMGWNRQAPGKERELVATITWSGGSTNYADSVKGRFTISRDNAKNTVYLQMYSLKPEDTAVYYCAADLKYWYFGLAFIEVDYWGQGTQVTVSS	low polyreactivity
QVQLVESGGGLVQAGGSLRLSCAASGSTFGYYAMGWYRQAPGKERELVAAISDGGSTYYADSVKGRFTISRDNAKNTVYLQMNSLKPEDTAVYYCAAEYLAYDWYEYYYWGQGTQVTVSS	high polyreactivity
QVQLVESGGGLVQAGGSLRLSCAASGSTFGYYAMGWYRQAPGKERELVAAITSGGSKKYADSVKGRFTISRDNAKNTVYLQMNSLKPEDTAVYYCATSRYFGYGYWGQGTQVTVSS	low polyreactivity
QVQLVESGGGLVQAGGSLRLSCAASGSTFGYYAMGWYRQAPGKERELVAGITSGGSTYYADSVKGRFTISRDNAKNTVYLQMNSLKPEDTAVYYCAKPVRHYRGRYFKYDYWGQGTQVTVSS	high polyreactivity
QVQLVESGGGLVQAGGSLRLSCAASGSTFGYYAMGWYRQAPGKERELVAVIRRGGSTNYADSVKGRFTISRDNAKNTVYLQMNSLKPEDTAVYYCNKYRYAGITAEFYYWGQGTQVTVSS	high polyreactivity
QVQLVESGGGLVQAGGSLRLSCAASGSTFGYYAMGWYRQAPGQERELVAAITSGGSTKYADSVKGRFTISRDNAKNTVYLQLISLKPEDNAVYYCATSRYFGYGYWGQGTQVTVSS	low polyreactivity
QVQLVESGGGLVQAGGSLRLSCAASGSTFGYYTMGWYRQAPGKERELVAAISWSGGRTYYADSVKGRFTISRDNAKNTVYLQMNSLKPEDTAVYYCAAPRYGGWRSYQKYDYWGQGTQVTVSS	high polyreactivity
QVQLVESGGGLVQAGGSLRLSCAASGSTFGYYTMGWYRQAPGKERELVAAITKSGGGTYYADSVKGRFTISRDNAKNTVYLQMNSLKPEDTAVYYCADYSRFTSDYWGQGTQVTVSS	high polyreactivity
QVQLVESGGGLVQAGGSLRLSCAASGSTFGYYTMGWYRQSPGKERELVAAITWRGGRTYYADSVKGRFTISRDNEKNTVYLQMNSLKPEDTAVYYCAARSTVVMDYWGQGTKVTVSS	high polyreactivity
QVQLVESGGGLVQAGGSLRLSCAASGSTFHDNAMGWYIQAPGKERELVAAISSGGRTNYADSVKGRFTISRDNAKNTVYLQMNSLKPEDTAVYYCAASFRRWYFYDRHEYGYWGQGTQVTVSS	low polyreactivity
QVQLVESGGGLVQAGGSLRLSCAASGSTFHDYAMGWYRQAPGKEREFVAAISVRGGSTYYADSVKGRFTISRDNAKNTVYLQMNSLKPEDTAVYYCNKLSSDSYNYWGQGTQVTVSS	high polyreactivity
QVQLVESGGGLVQAGGSLRLSCAASGSTFHFYAMGWYRQAHGKERELVASITSRGGNTHYADSVKGRFTISRDNAKNTVYFQMNSLKPEDTAVYYCAARKGTSWKAHFRFDYWGQGTQVTVSS	low polyreactivity
QVQLVESGGGLVQAGGSLRLSCAASGSTFHLYAMGWYRQAPGKERELVADIDLSGGSTYYADSVKGRFTISRDNAKNTVYLQMNSLKPEDTAVYYCAADHVSSLGFDYWGQGTQVTVSS	low polyreactivity
QVQLVESGGGLVQAGGSLRLSCAASGSTFHRKAMGWYRQAPGKERELVASISIGGSTNYADSVKGRFTISRDNAKNTVYLQMNSLKPEDTAVYYCATEPNPRRPRVDYDYWGQGTQVTVSS	low polyreactivity
QVQLVESGGGLVQAGGSLRLSCAASGSTFHRNAMGWYRPAQGKERELVASISIGGSTNYADSVKGRVTISRDNAKNTVYLQMNSLKPEDTAVYYCATEPNPRRPRVDYDYWGQGTQVTVSS	low polyreactivity
QVQLVESGGGLVQAGGSLRLSCAASGSTFHRNGMGWYRQAPGKERELVAAISRTGGSTYYADSEKGRFTISRDNAKNTVYLQMNSLKPEDTAVYYCAAQGNNYVRHTYGYWGQGTQVTVSS	low polyreactivity
QVQLVESGGGLVQAGGSLRLSCAASGSTFHRYAMGWYRQAAGKERELVATITSRGGITYYADSVKGRFTISRDNAKNTVYLQMNSLKPEDTAVYYCNTEDGTTPQYGYDQGMYYWGQGTQVTVSS	low polyreactivity
